The target of data set [1] is T1, His6-SUMO-tagged SH3 to PDZ domains of Shank2 (R520-D727), WT ( (human or rat cDNA cloned), UniProt Q9UPX8-3 520-727).
T1 construct: Shank2, SH3 to PDZ domains, residues R520-D727; numbers count on: NM_012309.5 (isoform of 1849 residues); Cloned into pET-SUMO; also called His6-SUMO-SH3-PDZ fusion; Shank2 WT; source: E. coli BL21(DE3), purified (Ni-NTA agarose, G-25); not shown: His6, N-terminal, kept; SUMO, N-terminal, kept
T1 sequence (looked up): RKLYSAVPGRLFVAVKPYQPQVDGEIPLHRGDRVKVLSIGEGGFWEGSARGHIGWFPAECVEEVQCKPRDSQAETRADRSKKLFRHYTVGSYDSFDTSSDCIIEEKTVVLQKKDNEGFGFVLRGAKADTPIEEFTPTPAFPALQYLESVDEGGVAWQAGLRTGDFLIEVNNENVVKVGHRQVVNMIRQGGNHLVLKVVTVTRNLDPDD
Nature of the data set: ITC; peptide in the syringe (200 µM; 1 mM for G643R), His6-SUMO SH3-PDZ protein in the cell (20-30 µM); 25 °C; 50 mM Tris-HCl pH 8.0, 100 mM NaCl, 1 mM EDTA; 1:1 binding model. To be noted: both partners purified. A general note: ITC needs no label: the signal is the heat of the interaction.

Data set [2] addresses T2, GST fusion protein of the GKAP C-terminus (50 C-terminal residues), P97836-4.
T2 chain: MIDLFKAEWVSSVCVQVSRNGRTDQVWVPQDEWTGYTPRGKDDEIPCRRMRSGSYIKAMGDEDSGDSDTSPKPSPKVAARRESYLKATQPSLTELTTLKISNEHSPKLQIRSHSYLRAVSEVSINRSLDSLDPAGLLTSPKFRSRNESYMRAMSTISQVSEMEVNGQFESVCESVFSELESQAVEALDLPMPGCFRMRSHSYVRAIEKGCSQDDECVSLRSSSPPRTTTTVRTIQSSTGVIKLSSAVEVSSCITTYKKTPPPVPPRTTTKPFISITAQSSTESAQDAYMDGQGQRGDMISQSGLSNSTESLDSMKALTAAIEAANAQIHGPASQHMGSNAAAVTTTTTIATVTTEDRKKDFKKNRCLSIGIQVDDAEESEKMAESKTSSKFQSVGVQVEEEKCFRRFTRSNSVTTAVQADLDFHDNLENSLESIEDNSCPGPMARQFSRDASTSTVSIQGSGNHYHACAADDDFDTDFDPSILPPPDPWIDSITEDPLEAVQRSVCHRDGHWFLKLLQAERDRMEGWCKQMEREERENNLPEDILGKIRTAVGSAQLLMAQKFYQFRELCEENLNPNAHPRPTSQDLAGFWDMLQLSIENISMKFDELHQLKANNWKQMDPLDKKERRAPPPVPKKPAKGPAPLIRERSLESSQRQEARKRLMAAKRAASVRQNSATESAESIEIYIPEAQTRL
Nature of the data set: GST pulldown, Western blot quantification. The note with it: chain shown with the change; 293T cell lysates; four independent experiments; parent: est. 3.8; read off a plot. On the technique in general: In western blotting, separated proteins are transferred to a membrane and probed.

Data set [3] deals with the molecule itself. Nature of the data set: turbidity (absorbance at 350 nm); His6-SUMO-tagged SAM domains, 10 µM, mixed with Zn2+ in 96-well plates (200 µl); absorbance after 10 min or every 10 s with 10 µM Zn2+; 0.5 M NaCl, 20 mM Tris/HCl pH 7.5.
Data set [4] concerns the molecule itself. Nature of the data set: crystal structure; Shank2-SAM WT (0.1 M Bis-Tris pH 5.5, 0.3 M Mg-formate) and L1800W (0.1 M Bis-Tris pH 5.5, 26% PEG 2000MME); sitting drop vapor diffusion; contacts between symmetry-related SAM domains in the crystal; no Zn2+ added.
Data set [5] concerns the molecule itself. Nature of the data set: dynamic light scattering; isolated SAM domains (tag cleaved), 50 µM protein and 50 µM Zn2+, 1 h at room temperature, filtered 0.22 µm.

Changes are numbered by the printed parent chain. Numbers in names are those of the source.

B1: synthetic peptide of the C-terminal PDZ ligand of CIRL1/latrophilin (peptide)
peptide: PGPDGDGQMQLVTSL
notes: CIRL1/latrophilin, C-terminal PDZ ligand (15 residues), free N- and C-terminus; also called CIRL1 peptide; source: synthetic peptide (Genscript)
As for B1, the “fold reduction of affinity against the GKAP peptide” value in data set [1] is approximately 40 fold.

B2: mCherry-tagged human Shank2a (WT), Q9UPX8-3 S610Y (protein)
chain: MPRSPTSSEDEMAQSFSDYSVGSESDSSKEETIYDTIRATAEKPGGARTEESQGNTLVIRVVIHDLQQTKCIRFNPDATVWVAKQRILCTLTQSLKDVLNYGLFQPASNGRDGKFLDEERLLREYPQPVGEGVPSLEFRYKKRVYKQASLDEKQLAKLHTKTNLKKCMDHIQHRLVEKITKMLDRGLDPNFHDPETGETPLTLAAQLDDSVEVIKALKNGGAHLDFRAKDGMTALHKAARARNQVALKTLLELGASPDYKDSYGLTPLYHTAIVGGDPYCCELLLHEHATVCCKDENGWHEIHQACRYGHVQHLEHLLFYGADMSAQNASGNTALHICALYNQDSCARVLLFRGGNKELKNYNSQTPFQVAIIAGNFELAEYIKNHKETDIVPFREAPAYSNRRRRPPNTLAAPRVLLRSNSDNNLNASAPDWAVCSTATSHRSLSPQLLQQMPSKPEGAAKTIGSYVPGPRSRSPSLNRLGGAGEDGKRPQPLWHVGSPFALGANKDSLSAFEYPGPKRKLYSAVPGRLFVAVKPYQPQVDGEIPLHRGDRVKVLSIGEGGFWEGSARGHIGWFPAECVEEVQCKPRDSQAETRADRSKKLFRHYTVGYYDSFDTSSDCIIEEKTVVLQKKDNEGFGFVLRGAKADTPIEEFTPTPAFPALQYLESVDEGGVAWQAGLRTGDFLIEVNNENVVKVGHRQVVNMIRQGGNHLVLKVVTVTRNLDPDDTARKKAPPPPKRAPTTALTLRSKSMTSELEELVDKASVRKKKDKPEEIVPASKPSRAAENMAVEPRVATIKQRPSSRCFPAGSDMNSVYERQGIAVMTPTVPGSPKAPFLGIPRGTMRRQKSIDSRIFLSGITEEERQFLAPPMLKFTRSLSMPDTSEDIPPPPQSVPPSPPPPSPTTYNCPKSPTPRVYGTIKPAFNQNSAAKVSPATRSDTVATMMREKGMYFRRELDRYSLDSEDLYSRNAGPQANFRNKRGQMPENPYSEVGKIASKAVYVPAKPARRKGMLVKQSNVEDSPEKTCSIPIPTIIVKEPSTSSSGKSSQGSSMEIDPQAPEPPSQLRPDESLTVSSPFAAAIAGAVRDREKRLEARRNSPAFLSTDLGDEDVGLGPPAPRTRPSMFPEEGDFADEDSAEQLSSPMPSATPREPENHFVGGAEASAPGEAGRPLNSTSKAQGPESSPAVPSASSGTAGPGNYVHPLTGRLLDPSSPLALALSARDRAMKESQQGPKGEAPKADLNKPLYIDTKMRPSLDAGFPTVTRQNTRGPLRRQETENKYETDLGRDRKGDDKKNMLIDIMDTSQQKSAGLLMVHTVDATKLDNALQEEDEKAEVEMKPDSSPSEVPEGVSETEGALQISAAPEPTTVPGRTIVAVGSMEEAVILPFRIPPPPLASVDLDEDFIFTEPLPPPLEFANSFDIPDDRAASVPALSDLVKQKKSDTPQSPSLNSSQPTNSADSKKPASLSNCLPASFLPPPESFDAVADSGIEEVDSRSSSDHHLETTSTISTVSSISTLSSEGGENVDTCTVYADGQAFMVDKPPVPPKPKMKPIIHKSNALYQDALVEEDVDSFVIPPPAPPPPPGSAQPGMAKVLQPRTSKLWGDVTEIKSPILSGPKANVISELNSILQQMNREKLAKPGEGLDSPMGAKSASLAPRSPEIMSTISGTRSTTVTFTVRPGTSQPITLQSRPPDYESRTSGTRRAPSPVVSPTEMNKETLPAPLSAATASPSPALSDVFSLPSQPPSGDLFGLNPAGRSRSPSPSILQQPISNKPFTTKPVHLWTKPDVADWLESLNLGEHKEAFMDNEIDGSHLPNLQKEDLIDLGVTRVGHRMNIERALKQLLDR
For B2, the response (Precipitate / Input) in data set [2] stood at 2.4.

B3: mCherry-tagged human Shank2a (WT), Q9UPX8-3 N690S (protein)
chain: B2 chain with Y610S, N690S
B3: the response (Precipitate / Input) in data set [2] is 2.8.

B4: mCherry-tagged human Shank2a (WT), Q9UPX8-3 G643R (protein)
chain: B2 chain with Y610S, G643R
Take B4: the response (Precipitate / Input) in data set [2] stood at 0.3.

B5: His6-SUMO-tagged Shank2-SAM domain (T1780-R1849), WT (domain or fragment, UniProt Q9UPX8-3 1780-1849, looked up)
chain: TKPVHLWTKPDVADWLESLNLGEHKEAFMDNEIDGSHLPNLQKEDLIDLGVTRVGHRMNIERALKQLLDR
notes: Shank2 SAM domain, residues T1780-R1849; numbers count on: NM_012309.5 (isoform of 1849 residues); also called SUMO-SAM fusion; WT SAM domain; source: E. coli BL21(DE3), purified (Ni-NTA agarose, G-25); not shown: His6, N-terminal, kept; SUMO, N-terminal, kept
With B5, in data set [3], the binding result is recorded as “binds”.

B6: His6-SUMO-tagged Shank2-SAM domain (T1780-R1849), L1800W (domain or fragment, UniProt Q9UPX8-3 1780-1849, looked up)
chain: B5 chain with L21W
notes: Shank2 SAM domain, residues T1780-R1849, patient variant L1800W; numbers count on: NM_012309.5 (isoform of 1849 residues); also called L1800W mutant; p.L1800W SAM domain; source: E. coli BL21(DE3), purified (Ni-NTA agarose, G-25); not shown: His6, N-terminal, kept; SUMO, N-terminal, kept
B6: in data set [3], the binding result is “binds”.

B7: Shank2-SAM domain (T1780-R1849), L1800W, His-SUMO tag cleaved off (domain or fragment, UniProt Q9UPX8-3 1780-1849, looked up)
chain: B5 chain with L21W
notes: Shank2 SAM domain, residues T1780-R1849, patient variant L1800W; numbers count on: NM_012309.5 (isoform of 1849 residues); also called SAM-L1800W; L1800W mutant SAM domain; source: E. coli BL21(DE3), purified (Ni-NTA agarose), tag cleaved with SUMO protease and removed on Ni-NTA; not shown: His6, N-terminal, cleaved; SUMO, N-terminal, cleaved
For B7, the binding result in data set [4] was “binds”.

B8: Shank2-SAM domain (T1780-R1849), WT, His-SUMO tag cleaved off (domain or fragment, UniProt Q9UPX8-3 1780-1849, looked up)
chain: B5 chain
notes: Shank2 SAM domain, residues T1780-R1849; numbers count on: NM_012309.5 (isoform of 1849 residues); also called SAM-WT; Shank2-SAM WT; source: E. coli BL21(DE3), purified (Ni-NTA agarose), tag cleaved with SUMO protease and removed on Ni-NTA; not shown: His6, N-terminal, cleaved; SUMO, N-terminal, cleaved
With B8, the binding result in data set [5] is on record as “binds”.

These data come from PMC11371640, “Structural deficits in key domains of Shank2 lead to alterations in postsynaptic nanoclusters and to a neurodevelopmental disorder in humans” (Molecular Psychiatry, 2022).
